The values that follow come from patent US20050010028A1 (KEIO UNIVERSITY, published 2005).

To fix the notation:
B1: Rhodamine green-labeled c-Fos (other, UniProt P01101 118-211, looked up)
chain: GRAQSIGRRGKVEQLSPEEEEKRRIRRERNKMAAAKCRNRRRELTDTLQAETDQLEDEKSALQTEIANLLKEKEKLEFILAAHRPACKIPDDLG
modifications: C-terminus joined through puromycin to a rhodamine green modifying agent that also carries biotin or iminobiotin (Modifying agent 22 or 23; which one in the FCCS sample is not stated)
notes: also called Rh-Fos; rhodamine green-modified c-fos; not shown: T7 tag at the N-terminus; C-terminal polyhistidine tag
B2: Cy5-labeled c-Fos (other, UniProt P01101 118-211, looked up)
chain: B1 chain
modifications: C-terminus joined through puromycin to a Cy5 modifying agent that also carries biotin or iminobiotin (Modifying agents 24-26; Modifying agent 25 in FIGS. 14 and 15; the agent used in the FCCS sample is not stated)
notes: also called Cy5-Fos; not shown: T7 tag at the N-terminus; C-terminal polyhistidine tag
B3: streptavidin-fused Fos protein (other, UniProt P01101 118-211, looked up)
chain: B1 chain
notes: From plasmid pSP6-STA-Fos (pET20b backbone), spotted as translation solution on a biotin-coated slide; also called STA-Fos; STA-Fos(F); not shown: T7 tag at the N-terminus of streptavidin; streptavidin, gene amplified from the Streptomyces avidinii genome

One assay addresses T1, Cy5-labeled c-Jun (mouse, UniProt P05627 216-318, C-terminus joined through puromycin to a Cy5 modifying agent that also carries biotin or iminobiotin (Modifying agents 24-26; Modifying agent 25 in FIGS. 14 and 15; the agent used in the FCCS sample …).
T1 construct: also called Cy5-Jun; Cy5-modified c-Jun; not shown: T7 tag at the N-terminus; C-terminal polyhistidine tag
In words: fluorescence cross-correlation spectroscopy in solution, 10 nM each of the two labelled proteins and AP-1 double-stranded DNA. How it is done: (§1) Intermolecular interactions were analyzed by fluorescence cross-correlation spectroscopy using fluorescence-labeled c-Fos and c-Jun as well as AP-1 sequence double-stranded DNA. DNA and the modified proteins (at a final concentration of 10 nM each) were mixed. 10 μl of this sample was applied to an 8-well glass chamber (Nunc), and fluorescence cross-correlations were measured by using a fluorescence correlation spectrometer, ConfoCor2 (Car1 Zeiss). […] Based on the above, it was confirmed that proteins labeled with fluorescence according to the present invention could be used to detect protein interactions by using a fluorescence cross-correlation spectroscopy and further could be utilized for convenient and quick measurement of dissociation constant.

The target in assay [1] is B1. The assay is described as follows: fluorescence cross-correlation spectroscopy in solution, Cy5-Fos + Rh-Fos + AP-1 DNA. How it is done: as §1
In assay [2] the target is T2, Fos modified with TAMRA-dC-puromycin (Modifying agent 19) (mouse, UniProt P01101 118-211, C-terminus joined to TAMRA-dC-puromycin (Modifying agent 19)).
T2 construct: also called C-terminal fluorescence-labeled Fos; Fos protein having 12 His tags
In words: protein microarray: STA-Fos on a biotin plate, labelled Fos in solution, fluorescence scan.

T1 sequence (P05627 216-318): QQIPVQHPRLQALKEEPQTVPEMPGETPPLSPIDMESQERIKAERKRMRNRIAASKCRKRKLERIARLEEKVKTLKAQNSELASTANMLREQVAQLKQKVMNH

Regarding B1, in the assay with Cy5-labeled c-Jun, the Kd was approximately 10 nM.
B2: the binding result in assay [1] is on record as “no binding (tested: 10 nM each)”.
Consider B3, for which the binding result in assay [2] was “no binding”.
